Assay results reported in the nanobody polyreactivity screen of Harvey et al. (2022).

Assay: yeast display, Sf9 membrane polyspecificity reagent, FACS + sequencing; frameworks hold sequencing errors
Procedure, shortened: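 Sorting gates, low and high (top ~1%), were placed on anti-HA fluorescence to track expression and on streptavidin fluorescence to track reagent binding. A clone's polyreactivity label is taken from the gate it came out of. The reagent was 10% biotinylated, detergent-solubilized Sf9 membrane, applied for 1 hour at 4 °C to galactose-induced yeast display cells.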

Sequence | polyreactivity (PSR sort gate)
QVQLVDSGGGLVQAGGSLRLSCAASGRTFTQNAKGWYRPAPGKERELVAAIRRGGSTNYADSVKWRFTISRDNAKNTVYLQMKSLKPEDTAVYYCATECYYGFSYRYDFWGLGTQVTVSS | high polyreactivity
QVQLVESGGGLVQAGGSLRLICAASGSTFYYNAMGWYRQAPGKERELVAGITYRGGSTYYADSVKGRFTISRDNAKNTVYLQMNSLKPEDTAVYYCAARHYIWSQYYTRYDYWGQGTQVTVSS | high polyreactivity
QVQLVESGGGLVQAGGSLRLSCAASGRTFRFNAMGWYRQAPGKERELVAAISFRGGSTYYADSVKGRFTISRDNAKNTVYLQMNSLKPEHTAVYYCAARARTGTYRDMYYWGQGTQVTVSS | high polyreactivity
QVHLVESGGGLGKAGGSLRLSSAASGRTFQYYTMGWYRQAPGKARELVAAIRRGGSTYYADSVKGRFTISRDNAKNTVYLQMYSLKPEDTAVYYCAALYAYSLTARGMEYWGQGTQVTVSS | high polyreactivity
QVQLVESGGGLVQAGGSLRLSWAAYGRNFRPNTMGWYRQAPGKEREMVAAISRSGGSTYYADSVKARFTISRDNAKNTVYLQMNSLKPEDTAVYYCAKRYGGIVGVGAYKYEYWGQGTQVTVSS | high polyreactivity
QVQLVESGGGLVQAGGSLRLSCAASGIISYLYAMGWYRQAPGKERELVAVIRTSDAITYYADSVKGRFTISRDNAKNTVYLQMNSLKPEDTAVYYCAAEDVYEYDYWGQGTQVTVSS | high polyreactivity
QVQLVESGGGLVQAGGSLRLSCAASGSIFAKYAMGWYRQAPGKERELVAAISSGGSTYYADSVKGRFTISRDNAKNTVYLQMNSLKPEDTAVYYCNKPYGKETRYTFKVWYEYNYWGQGTQVTVSS | low polyreactivity
QVQLVESGGGLVQAGGRLRLSCADSGLIIYYYAMGWYRQAPGKEREFVAAITSSGGSTSYADSVKGRFTISRDNAKNTVYLQMNSLKPEDTAVYYCAARSKSEGGYWGQCTQVTVSS | high polyreactivity
QVQLQESGGGMVQAGGSLRLSCAASGSIFADVQMGWYRQAPGKVRELVASINFRGTTTYYADSVKGRFTISRDNAKNTVYLQMSSLKPEDTEVYYCAVGRSEGGDFAYWGQGTHVTVSS | low polyreactivity
QVHLVESGGGLVQAGGSLRLSCAASGRTFRLYAMAWSRQAPGKERELVARISRGGSTYYADSVKGRFTISRDNAKNTVYLLMNSLKREDTAVYYCAAEGWGLSHRYDYWGQGTQVTVSS | high polyreactivity
QVQLVESGGGLVQAGGSLRLSCAASGRIFYSYAMGWYRQAPGKERELVAAIDESDGSPYYADSVKGRFTISRDNAKNTVYLQMNSLKPEDTAVYYCAADSLLVLFDYWGQGTQVTVSS | low polyreactivity
QVQLVESGGGLVQAGGSLRLSCAASGSTFGSNAMGWYRQAPGKERELVAAIRWSGGSTYYADSVKGRFTISRDNAKNTVYLQMNSLKPEDTAVYYFAGYYFQYNRRFNYWGQGTQVTVSS | high polyreactivity
QVQLVESGGGLVQAGGSLRLSCAASGSIFGDNAMGWYRQAPGKERELVARISSGGNTYYADSVKGRFSISRDNAMNTVYLQMNSLKPEDTAVYYCAAAIIVRYKKFPYYYWGQGTQVTVSS | high polyreactivity
QVQLVESGGGLVQAGGSLRLSCAASGRTFGQNTMGWYRQAPGIERELVAAINWSGGSTYYADSVKGRFTISRDIAKNTVYVQMNSLKPEDTAVYYCAVRGYWGQGTQVTVSS | low polyreactivity
QVQLVESGGGLVQAGGSLRLSCAASGITFSDYAMGWYRQAPGKERELVAGITSGGSTYYADSVKGRFTISRDNAKNTVYLQMNSLKPEDTAVYYCAAVRRWKYDWGQGTQVTVSS | high polyreactivity
QVQLVESGGGLVQAGGSLRLTCAASGFILSSNAMGWYRQAPGKERELVAAITRSGGSTYYADSVKGRFTISRDNAKNTVYLEMNSLKPEDTAVYYCNRLYYSGSGASLDYWGQGTQVTVSS | high polyreactivity
QVQLVESGGVLVQAGGSLRLSCAASGRIFDDYAMGWYRQAPGKERELVAAIRSGGNSNYADSVKGRFTISRDNAKNTVYLQMNSLTPEETAVYYCAADEVRSAWRCSSPPDYDHWGQGTHVTVSS | low polyreactivity
QVQLVESGGGLVQAGGRLRLSCAASGFTFKKNAMGWYRQAPGKERELVAAIRSGTSTKYADSVKGRFTISRDNAKNTVYLQMNSLKPEDTAVYYCAAEEPEYLATWRNRRYDYWGQGTQVTVSS | low polyreactivity
QVQLVESGGGLVQAGGSLSLSCAASGRNFLRNAMGWYRKAPGKERELVAAIKSGGNTYYADSVKGRFTISRDNAKITVYLQMNSLKPEYTAVYYCADRQYGFASYRMDYWGHGTQVTVSS | high polyreactivity
QVQLVESGGGLVQAGGSLRLSCAASGSTFIWNGMGWYRQAPGKERELVAAITSSSTNYADSVKGRFTISRDNAKNTVYLQMNSLKPEDTAVYYCAAEIYPLGSLRLGPGEYDHWGQGTQVTVSS | low polyreactivity
QVQLVESGGGLVQAGGSLRLSCAASGFTFIQYDMGWYRLAPGKERELVAAISSSGGSTYYADSVKGRFTISRDNAKNTVYLQMNSLKPEDTAVYNCAADPWVRLEYDYWGQGTQVTVSS | low polyreactivity
QVQLVESGGGLVQAGGSLRLSCAASGSIFYSNAMGWYRQAPGKERELVAAISVSGVSTYYADSVKGRFTISRDNAKNTVYLQMNSLKPEDTAVYYCAADTGYRYDDYYWWGGEYDYWGQGTQVTVSS | low polyreactivity

Sequence | polyreactivity (PSR sort gate)
QVQLVESGGGLVQARGSLRLSCAASGSIFSYYARGLYRQAPGKESELVAAITRGGTTYYADSVKGRFTISRDNAKNSVYLQMNSLKPEDTAVYYCAVYYYSGTAGYRYGYWGQGSQVTVSS | high polyreactivity
QVQLVESGGGLVQAGGSLRLSCAASGFIFNAYPMGWYRPAPGKERELVAAISSSGGRTYYADSVKGRFTISRDNAKNTVYLHMNSLKPEDTAVYYCNADKNSIIKLRGYYYWGQGTQVTVSS | high polyreactivity
QVQLVESGGGLVQAGGSLRLSCAASGFTFWDYTMGWYRQAPGKERELVAAITRSGGRTYYADSVKGRFTISRDNAKNTVYLQMNSLKPEDTAVYYCAAKIWSKDEKHDYWGQGTQVTVSS | high polyreactivity
QVQLVESGGGLVQAGGSLRLSCAASGRTFFPYAMGWYRPAPGKEREFVAAITKTDDSTYYADSVKGRFTISRDNAKNTVYLQMNSLKPEDTAVYYCNAGDTQIRFYYWGQGTQVTVSS | low polyreactivity
QVQLVESGGGLVQAGGSLRLRCAASGRIIFRNAMVWYRQAHGKERELVAAITRGGGSTYYADSVKGRFTISRDNAKNTVYLQMNSLKPEDTAVYYCAAGACYSLYSAYDYWGQGTQVTVSS | low polyreactivity
QVQLVESGGGLVQAGGSLLLSCAASGRTFRPYSMGWYRQAPGKERELVAAITRSGGSTYYADSVKGRFTISRDNEKNTVYLQMNSLKPEDTAVYYCAAYNTYSDTYDYWGQGTQVTVSS | low polyreactivity
QDQLEESGGGLVQAGGSLRLSCAASGFTFGNNAMGWYRQAPGKERELDAAISKRGSSTYYADSVKGRFTISRDNAKNTVYLLMNSLKPDDTAVYYCAAQTPYYLLYDTGDYLGQGTQVTVSS | high polyreactivity
QVQLVESGGGLVQAGCSLRLSCAASGFTFAKYAMGRYRQAPGKERELVAAITYRDGSTYYADSVKGRFTISRDYAKNTVYLQMNSLKPEDSAVYYCAAVASYVRYGYWGQGTQVTVSS | high polyreactivity
QVQLVESGGGLVQAGGSLRLSCAASRSIFYSYALGWSRQAPGKEREWVADITITGSTYYADSVKGRFTISRDNAKNTVYLQMKSLKSEDTAVYFCNAVLAPGGYAYWGQGTQVTVSS | low polyreactivity
QVQLVESGGGLVQAGGSLRLSCAASGFTLSAYAMGWYRQAPGKERELVAGISYTGGRTYYADSVKGRFTISRDNAKNTVYLQMNSLKPEDTAVYYCNKAWSGYYKYGYWGQGTQVNVSS | low polyreactivity
QVQLVESWGGLVQAGGSLRLSCAASGSTFYWYTMGWYRQAPGKERELVARISSSGSTNYADSVKGRFTISRDNAKNTVYLQMKSLKPEDTAVYYCKKDWIYRGYDYWGQGTQVTVSS | high polyreactivity
QVQLVESGGGLVQAGGSLRLSCAASVRTFSYYAMGWYRQAPGKERELVASISGGGRTNYADSVKGRFTISRDNAKKTVYLQMNSLKPEDTAVYYCAARYQITRQYKRGYWGQGNQVTVSS | high polyreactivity
QVQLVESGGGLVQAGGSLRLSCAASGGTFFENAMGWDRQAPGKERELVAAISSSGASTYYADSVKGRFTISRDNAKNTVYLQMNSLKPEDTAVYYCNAGQRVRSTLYDYWGQGTQVTVSS | high polyreactivity
QVQLVESGGGLVQAGGSLRLSCAASGSTFPYYTMGWYRQAPGKERELVAAITWRGGRTYYADSVKGRFTISRDNAKNTVYLQMNSLKPEDTAVYYCAVYRRWYSGLYDYWGQGTQVTVSS | high polyreactivity
QVQLVEAGVCLVQSGGRLRLSCAATGFTFTSKVIGWSRQAPGKERELVADISASDGRTYYADSVKGRFRISRENAKNTVYLQMNRLKTEDTAVYYCAASLWVYVGQARYHWYDYWGQGTQVTVSS | low polyreactivity
QVQLVESGGGLVQAGGSLRLSCAASGRIFPVNAMGRYRQAPGKERELVATISSGDITNYADSVKGRFTISRDNAKNTVYLQMNSLKPEDTAVYYCNADTSYSEWGSWYYEYDYWGQGTQVTVSS | low polyreactivity
QVQLVESGGGLVQAGGSLRLSCAASGRTLGGYAMGWYRQAPGKERELVASITSTSSTYADSVKGRFTISRDNAKNTVYLQMNSLKPEDTAVYYCAADYFLTSYGWRIHYTYYYWGQGTQVTVSS | low polyreactivity
QVHLVESGGGLVQAGGSLRLSCAASGIIVYPYAMGWYRQAPGKESELVATISYRGGSTYYADSVKGRFTISRDNAKNTVYLQMNSLKPEETAVYYCAAERGYPKFGYCGQGTQVTVSS | low polyreactivity
QVQLVESGGGLVQAGGSLRLSCAASGSTFFWYAMGWYRQAPGKEREFVAAITYRGGSTHYADSVKGRFTISRDNAKNTVYLQMNSLKPEDTAVYYCAARSLRYPYDYWGQGTQVTVSS | low polyreactivity
QVQLVESGGGLVQAGGSLRLSCAASGSIFTPNTMGWYRQAPGKEREFVAAINTSGSTNYADSVKGRFTISRDNAKNTVYLQLNSLKPEDTAVYYCAAGIVVTGYDYWGQGTQVTVSS | low polyreactivity
QVQLVESGGGLVQAGGSLRLSCAASGRIFSRYAMGWYRQAPGKERELVAVISRSGADTYYADSVKGRFTISRDNAKNTVYLQMNSLKPEDTAVYYCNAYSARRPHPMGYDYWGQGTQVTVSS | high polyreactivity
